Test results reported in US20110059060A1.

Molecular target: thuricin CD (Bacillus thuringiensis DPC 6431)

Substance | antimicrobial activity after enzyme treatment (well diffusion assay, C. difficile ATCC 43593) (% reduction in activity)
pepsin (enzyme) | 50
trypsin (enzyme) | 20
